This note sets out measurements from article PMC12931233.

A short description of series [1]: immunoblot of endogenous CD47, MHCC97-H and HCCLM3. The following applies: control: matched control (untreated/DMSO, scramble, vector). Background: A western blot detects proteins with antibodies after separation by electrophoresis.
A short description of series [2]: cell-surface CD47 by flow cytometry and immunofluorescence. The following applies: glycan changed form; control: scramble / vector. Background: A flow cytometer gives signals particle by particle.
A short description of series [3]: CHX chase, rescued MHCC97-H; half-life. The following applies: glycan changed form; control: scramble / vector, WT CD47 rescued cells.
A short description of series [4]: IP and ubiquitin immunoblot.
Series [5] in a line: CHX chase immunoblot, 293T; half-life. The following applies: glycan lost.
Series [6] in a line: immunoblot, reconstituted MHCC97-H. The following applies: glycan lost; control: WT CD47 reconstituted cells.
Series [7] can be described thus: CHX chase immunoblot, reconstituted MHCC97-H; half-life. The following applies: glycan lost; control: WT CD47 reconstituted cells.
The nature of series [8]: Transwell chemotaxis; CCR7 on DCs. The following applies: glycan lost; control: CD47 WT reconstituted Hepa1-6.
Series [9] can be described thus: ubiquitin immunoblot, reconstituted Hepa1-6. The following applies: glycan lost; control: WT CD47 reconstituted Hepa1-6.
Series [10] in a line: Transwell co-culture with BMDCs, flow cytometry. The following applies: glycan lost; control: CD47 WT reconstituted Hepa1-6.

Regarding CD47: 2F-Fuc, in series [1] (glycan changed form), the expression_or_secretion result was “decreases”. As for CD47: FUT8 ablation, the expression_or_secretion entry in series [2] was “decreases”.

For the molecule CD47: FUT8 depletion, in series [3], the degradation_or_half_life entry is on record as “decreases”. As for CD47: FUT8 overexpression, the degradation_or_half_life result in series [3] is recorded as “increases”. Also, the expression_or_secretion result in [2] is reported as “increases”. Turning to CD47: HA-FUT8 WT overexpression, the “other: ubiquitination level” value in series [4] (glycan changed form, control: untreated / vector) is on record as “decreases”. CD47: HA-FUT8 overexpression: the expression_or_secretion entry in series [1] (glycan changed form) is listed as “increases”. Consider CD47: N23Q, for which the “other: ubiquitination level” value in [4] (glycan lost, control: WT CD47) is on record as “no change”. Further, the degradation_or_half_life entry in series [5] (control: Flag-CD47 WT) is listed as “no change”. Regarding CD47: N34Q, the “other: ubiquitination level” value in [4] (glycan lost, control: WT CD47) is “no change”. Besides, in series [5] (control: Flag-CD47 WT), the degradation_or_half_life entry was “no change”. Regarding CD47: N50Q, the “other: ubiquitination level” value in series [4] (glycan lost, control: WT CD47) is recorded as “no change”. Besides, in [5] (control: Flag-CD47 WT), the degradation_or_half_life result is recorded as “no change”. CD47: N73Q: the “other: ubiquitination level” value in [4] (glycan lost, control: WT CD47) is reported as “no change”. Moreover, the degradation_or_half_life result in [5] (control: Flag-CD47 WT) was “no change”. On to CD47: N111A, for which the expression_or_secretion result in series [6] is on record as “decreases”. Also, the degradation_or_half_life result in [7] is given as “decreases”. On to CD47: N111Q, for which the “other: ubiquitination level” value in [4] (glycan lost, control: WT CD47) was “increases”. In addition, the expression_or_secretion entry in [6] is on record as “decreases”. The degradation_or_half_life entry in [5] (control: Flag-CD47 WT) and in series [7] was “decreases” each time. For the molecule CD47: N111T, the expression_or_secretion entry in [6] is given as “decreases”. In addition, in series [7], the degradation_or_half_life result is reported as “decreases”. For CD47: shFUT8, the expression_or_secretion entry in series [1] (glycan changed form) was “decreases”.

Consider CD47: tunicamycin (TM), for which the “other: ubiquitination level” value in [4] (glycan lost, control: untreated / vector) is on record as “increases”. In addition, the degradation_or_half_life entry in series [5] (control: DMSO) is recorded as “decreases”. In addition, the expression_or_secretion entry in [1] (glycan lost) is on record as “decreases”.

B1: CD47 (murine): N109Q (protein)
parent chain: MWPLAAALLLGSCCCGSAQLLFSNVNSIEFTSCNETVVIPCIVRNVEAQSTEEMFVKWKLNKSYIFIYDGNKNSTTTDQNFTSAKISVSDLINGIASLKMDKRDAMVGNYTCEVTELSREGKTVIELKNRTVSWFSPNEKILIVIFPILAILLFWGKFGILTLKYKSSHTNKRIILLLVAGLVLTVIVVVGAILLIPGEKPVKNASGLGLIVISTGILILLQYNVFMTAFGMTSFTIAILITQVLGYVLALVGLCLCIMACEPVHGPLLISGLGIIALAELLGLVYMKFVASNQRTIQPPRNR
Consider B1, for which the “other: CD103+ DC migration and CCR7 expression” value in series [8] was “increases”. Further, the “other: ubiquitination level” value in series [9] was “increases”. Moreover, in series [10], the “other: NK cell TNF-α and GZMB expression” value was “increases”.

B2: CD47 (murine): N109T (protein)
parent chain: MWPLAAALLLGSCCCGSAQLLFSNVNSIEFTSCNETVVIPCIVRNVEAQSTEEMFVKWKLNKSYIFIYDGNKNSTTTDQNFTSAKISVSDLINGIASLKMDKRDAMVGNYTCEVTELSREGKTVIELKNRTVSWFSPNEKILIVIFPILAILLFWGKFGILTLKYKSSHTNKRIILLLVAGLVLTVIVVVGAILLIPGEKPVKNASGLGLIVISTGILILLQYNVFMTAFGMTSFTIAILITQVLGYVLALVGLCLCIMACEPVHGPLLISGLGIIALAELLGLVYMKFVASNQRTIQPPRNR
B2: the “other: NK cell TNF-α and GZMB expression” value in series [10] was “increases”.

B3: CD47 (murine): N109A (protein)
parent chain: MWPLAAALLLGSCCCGSAQLLFSNVNSIEFTSCNETVVIPCIVRNVEAQSTEEMFVKWKLNKSYIFIYDGNKNSTTTDQNFTSAKISVSDLINGIASLKMDKRDAMVGNYTCEVTELSREGKTVIELKNRTVSWFSPNEKILIVIFPILAILLFWGKFGILTLKYKSSHTNKRIILLLVAGLVLTVIVVVGAILLIPGEKPVKNASGLGLIVISTGILILLQYNVFMTAFGMTSFTIAILITQVLGYVLALVGLCLCIMACEPVHGPLLISGLGIIALAELLGLVYMKFVASNQRTIQPPRNR
For the molecule B3, in series [10], the “other: NK cell TNF-α and GZMB expression” value is given as “increases”.
